Laboratory results as given in patent US20240124553A1.

What was measured:
Experiment in all cases: flow cytometry, transfected 293T cells
[1] = molecular target: CHIKV E2-E1 envelope glycoproteins (strain S27), E2 mutant A103S (chikungunya virus strain S27) (UniProt Q8JUX5)
[2] = molecular target: CHIKV E2-E1 envelope glycoproteins (strain S27), E2 mutant A33S (chikungunya virus strain S27) (UniProt Q8JUX5)
[3] = molecular target: CHIKV E2-E1 envelope glycoproteins (strain S27), E2 mutant A76S (chikungunya virus strain S27) (UniProt Q8JUX5)
[4] = molecular target: CHIKV E2-E1 envelope glycoproteins (strain S27), E2 mutant A78S (chikungunya virus strain S27) (UniProt Q8JUX5)
[5] = molecular target: CHIKV E2-E1 envelope glycoproteins (strain S27), E2 mutant A81S (chikungunya virus strain S27) (UniProt Q8JUX5)
[6] = molecular target: CHIKV E2-E1 envelope glycoproteins (strain S27), E2 mutant A89S (chikungunya virus strain S27) (UniProt Q8JUX5)
[7] = molecular target: CHIKV E2-E1 envelope glycoproteins (strain S27), E2 mutant C105A (chikungunya virus strain S27) (UniProt Q8JUX5)
[8] = molecular target: CHIKV E2-E1 envelope glycoproteins (strain S27), E2 mutant C125A (chikungunya virus strain S27) (UniProt Q8JUX5)
[9] = molecular target: CHIKV E2-E1 envelope glycoproteins (strain S27), E2 mutant D60A (chikungunya virus strain S27) (UniProt Q8JUX5)
[10] = molecular target: CHIKV E2-E1 envelope glycoproteins (strain S27), E2 mutant D63A (chikungunya virus strain S27) (UniProt Q8JUX5)
[11] = molecular target: CHIKV E2-E1 envelope glycoproteins (strain S27), E2 mutant D71A (chikungunya virus strain S27) (UniProt Q8JUX5)
[12] = molecular target: CHIKV E2-E1 envelope glycoproteins (strain S27), E2 mutant F115A (chikungunya virus strain S27) (UniProt Q8JUX5)
[13] = molecular target: CHIKV E2-E1 envelope glycoproteins (strain S27), E2 mutant G79A (chikungunya virus strain S27) (UniProt Q8JUX5)
[14] = molecular target: CHIKV E2-E1 envelope glycoproteins (strain S27), E2 mutant H127A (chikungunya virus strain S27) (UniProt Q8JUX5)
[15] = molecular target: CHIKV E2-E1 envelope glycoproteins (strain S27), E2 mutant H130A (chikungunya virus strain S27) (UniProt Q8JUX5)
[16] = molecular target: CHIKV E2-E1 envelope glycoproteins (strain S27), E2 mutant H73A (chikungunya virus strain S27) (UniProt Q8JUX5)
[17] = molecular target: CHIKV E2-E1 envelope glycoproteins (strain S27), E2 mutant I101A (chikungunya virus strain S27) (UniProt Q8JUX5)
[18] = molecular target: CHIKV E2-E1 envelope glycoproteins (strain S27), E2 mutant I56A (chikungunya virus strain S27) (UniProt Q8JUX5)
[19] = molecular target: CHIKV E2-E1 envelope glycoproteins (strain S27), E2 mutant K120A (chikungunya virus strain S27) (UniProt Q8JUX5)
[20] = molecular target: CHIKV E2-E1 envelope glycoproteins (strain S27), E2 mutant L34A (chikungunya virus strain S27) (UniProt Q8JUX5)
[21] = molecular target: CHIKV E2-E1 envelope glycoproteins (strain S27), E2 mutant L52A (chikungunya virus strain S27) (UniProt Q8JUX5)
[22] = molecular target: CHIKV E2-E1 envelope glycoproteins (strain S27), E2 mutant L83A (chikungunya virus strain S27) (UniProt Q8JUX5)
[23] = molecular target: CHIKV E2-E1 envelope glycoproteins (strain S27), E2 mutant P133A (chikungunya virus strain S27) (UniProt Q8JUX5)
[24] = molecular target: CHIKV E2-E1 envelope glycoproteins (strain S27), E2 mutant Q49A (chikungunya virus strain S27) (UniProt Q8JUX5)
[25] = molecular target: CHIKV E2-E1 envelope glycoproteins (strain S27), E2 mutant Q53A (chikungunya virus strain S27) (UniProt Q8JUX5)
[26] = molecular target: CHIKV E2-E1 envelope glycoproteins (strain S27), E2 mutant R119A (chikungunya virus strain S27) (UniProt Q8JUX5)
[27] = molecular target: CHIKV E2-E1 envelope glycoproteins (strain S27), E2 mutant S124A (chikungunya virus strain S27) (UniProt Q8JUX5)
[28] = molecular target: CHIKV E2-E1 envelope glycoproteins (strain S27), E2 mutant S61A (chikungunya virus strain S27) (UniProt Q8JUX5)
[29] = molecular target: CHIKV E2-E1 envelope glycoproteins (strain S27), E2 mutant T112A (chikungunya virus strain S27) (UniProt Q8JUX5)
[30] = molecular target: CHIKV E2-E1 envelope glycoproteins (strain S27), E2 mutant T87A (chikungunya virus strain S27) (UniProt Q8JUX5)
[31] = molecular target: CHIKV E2-E1 envelope glycoproteins (strain S27), E2 mutant T92A (chikungunya virus strain S27) (UniProt Q8JUX5)
[32] = molecular target: CHIKV E2-E1 envelope glycoproteins (strain S27), E2 mutant T94A (chikungunya virus strain S27) (UniProt Q8JUX5)
[33] = molecular target: CHIKV E2-E1 envelope glycoproteins (strain S27), E2 mutant Y69A (chikungunya virus strain S27) (UniProt Q8JUX5)

CHIKV mAb CHKV-88 (antibody)
Binding Reactivity (% WT) [1]: 85 % WT | Binding Reactivity (% WT) [2]: 123 % WT | Binding Reactivity (% WT) [3]: 122 % WT | Binding Reactivity (% WT) [4]: 126 % WT | Binding Reactivity (% WT) [5]: 82.3 % WT | Binding Reactivity (% WT) [6]: 118 % WT | Binding Reactivity (% WT) [7]: -0.1 % WT | Binding Reactivity (% WT) [8]: 3.7 % WT | Binding Reactivity (% WT) [9]: 56.5 % WT | Binding Reactivity (% WT) [10]: 85 % WT | Binding Reactivity (% WT) [11]: 108 % WT | Binding Reactivity (% WT) [12]: 25.1 % WT | Binding Reactivity (% WT) [13]: 121 % WT | Binding Reactivity (% WT) [14]: 91 % WT | Binding Reactivity (% WT) [15]: 110 % WT | Binding Reactivity (% WT) [16]: 91.8 % WT | Binding Reactivity (% WT) [17]: 44.5 % WT | Binding Reactivity (% WT) [18]: 116 % WT | Binding Reactivity (% WT) [19]: 82.3 % WT | Binding Reactivity (% WT) [20]: 58.3 % WT | Binding Reactivity (% WT) [21]: 100 % WT | Binding Reactivity (% WT) [22]: 38.8 % WT | Binding Reactivity (% WT) [23]: 92.3 % WT | Binding Reactivity (% WT) [24]: 87.1 % WT | Binding Reactivity (% WT) [25]: 85 % WT | Binding Reactivity (% WT) [26]: 99.5 % WT | Binding Reactivity (% WT) [27]: 112 % WT | Binding Reactivity (% WT) [28]: 105 % WT | Binding Reactivity (% WT) [29]: 71.6 % WT | Binding Reactivity (% WT) [30]: 52.9 % WT | Binding Reactivity (% WT) [31]: 109 % WT | Binding Reactivity (% WT) [32]: 109 % WT | Binding Reactivity (% WT) [33]: 95.4 % WT

CHIKV mAb IM-CKV065 (antibody)
Binding Reactivity (% WT) [1]: 46.8 % WT | Binding Reactivity (% WT) [2]: 123 % WT | Binding Reactivity (% WT) [3]: 125 % WT | Binding Reactivity (% WT) [4]: 107 % WT | Binding Reactivity (% WT) [5]: 96.6 % WT | Binding Reactivity (% WT) [6]: 111 % WT | Binding Reactivity (% WT) [7]: -2.9 % WT | Binding Reactivity (% WT) [8]: -2.9 % WT | Binding Reactivity (% WT) [9]: 114 % WT | Binding Reactivity (% WT) [10]: 64.8 % WT | Binding Reactivity (% WT) [11]: 102 % WT | Binding Reactivity (% WT) [12]: -0.2 % WT | Binding Reactivity (% WT) [13]: 98.5 % WT | Binding Reactivity (% WT) [14]: 81.9 % WT | Binding Reactivity (% WT) [15]: 104 % WT | Binding Reactivity (% WT) [16]: -0.9 % WT | Binding Reactivity (% WT) [17]: 6.3 % WT | Binding Reactivity (% WT) [18]: 102 % WT | Binding Reactivity (% WT) [19]: 0.4 % WT | Binding Reactivity (% WT) [20]: 16.3 % WT | Binding Reactivity (% WT) [21]: 142 % WT | Binding Reactivity (% WT) [22]: 6.2 % WT | Binding Reactivity (% WT) [23]: 66.6 % WT | Binding Reactivity (% WT) [24]: 37.3 % WT | Binding Reactivity (% WT) [25]: 43.3 % WT | Binding Reactivity (% WT) [26]: 120 % WT | Binding Reactivity (% WT) [27]: 97.3 % WT | Binding Reactivity (% WT) [28]: 112 % WT | Binding Reactivity (% WT) [29]: 16.2 % WT | Binding Reactivity (% WT) [30]: 7.6 % WT | Binding Reactivity (% WT) [31]: 93.2 % WT | Binding Reactivity (% WT) [32]: 102 % WT | Binding Reactivity (% WT) [33]: 46.3 % WT

Mxra8-Fc (mouse Mxra8 extracellular domain fused to mouse IgG2b Fc) (Fc fusion)
Binding Reactivity (% WT) [1]: 91.3 % WT | Binding Reactivity (% WT) [2]: 85.3 % WT | Binding Reactivity (% WT) [4]: 106 % WT | Binding Reactivity (% WT) [5]: 85.2 % WT | Binding Reactivity (% WT) [6]: 102 % WT | Binding Reactivity (% WT) [7]: -0.1 % WT | Binding Reactivity (% WT) [8]: -0.2 % WT | Binding Reactivity (% WT) [9]: 102 % WT | Binding Reactivity (% WT) [10]: 85 % WT | Binding Reactivity (% WT) [11]: -0.3 % WT | Binding Reactivity (% WT) [13]: 94.6 % WT | Binding Reactivity (% WT) [14]: 78 % WT | Binding Reactivity (% WT) [15]: 101 % WT | Binding Reactivity (% WT) [16]: 102 % WT | Binding Reactivity (% WT) [17]: 23.7 % WT | Binding Reactivity (% WT) [18]: 91.7 % WT | Binding Reactivity (% WT) [19]: 1.8 % WT | Binding Reactivity (% WT) [20]: 28.3 % WT | Binding Reactivity (% WT) [21]: 86.8 % WT | Binding Reactivity (% WT) [22]: 17.3 % WT | Binding Reactivity (% WT) [23]: 81.3 % WT | Binding Reactivity (% WT) [24]: 56.8 % WT | Binding Reactivity (% WT) [25]: 26.3 % WT | Binding Reactivity (% WT) [26]: 0 % WT | Binding Reactivity (% WT) [27]: 92.8 % WT | Binding Reactivity (% WT) [28]: 116 % WT | Binding Reactivity (% WT) [29]: 44.2 % WT | Binding Reactivity (% WT) [30]: 23.5 % WT | Binding Reactivity (% WT) [31]: 98.6 % WT | Binding Reactivity (% WT) [32]: 99.7 % WT | Binding Reactivity (% WT) [33]: 106 % WT
